Results reported in the supplement of paper PMC7877785.
± gives the uncertainty stated by the source.

Assay: self-splicing fitness, log relative to wild type (ln ratio); higher = more splicing; Tetrahymena group I intron in knt gene, E. coli kanamycin selection, DiMSum; sequences stand for … in CUCUCU…GGAGGGAAAAGUUAUCAGGCAUGCACCUGGUAGCUAGUCUUUAAACCAAUAGAUUGCAUCGGUUUAAAAGGCAAGACCGUCAAAUUGCGGGAAAGGGGUCAACAGCCGUUCAGUACCAAGUCUCAGGGGAAACUUUGAGAUGGCCUUGCAAAGGGUAUGGUAAUAAGCUGACGGACAUGGUCCUAACCACGCAGCCAAGUCCUAAGUCAACAGAUCUUCUGUUGAUAUGGAUGCAGUUCACAGACUAAAUGUCGGUCGGGGAAGAUGUAUUCUUCUCAUAAGAUAUAGUCGGACCUCUCCUUAAUGGGAGCUAGCGGAUGAAGUGAUGCAACACUGGAGCCGCUGGGAACUAAUUUGUAUGCGAAAGUAUAUUGAUUAGUUUUGGAGUACUCGUGGUCG
Procedure, shortened: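 Library with all eight P1ex-region intron nucleotides randomised, intron inside the knt kanamycin-resistance gene on pET-22b(+), in E. coli BL21(DE3). Cells grew overnight at 37°C or 30°C on LB agar with or without 25 μg/mL kanamycin (plus 100 μg/mL carbenicillin, 50 μM IPTG, 0.2% rhamnose), in six replicate transformations. Pooled colonies were amplicon-sequenced on Illumina HiSeq 2500. DiMSum fitness is the error-weighted combination of wild-type-normalised replicate fold changes, kanamycin versus none.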

Row | Sequence | self-splicing fitness (ln) (30 °C) | self-splicing fitness (ln) (37 °C)
1 | UAAAAGCAAUAUUACGCUUU | -3.78 ± 0.23 | -2.52 ± 0.3
2 | AGACAGCAAUAUUACGCGCA | -0.449 ± 0.084 | 0.312 ± 0.13
3 | CAGGAGCAAUAUUACGCCAA | -2.89 ± 0.37 | –
4 | GAUUAGCAAUAUUACGCGAG | -2.28 ± 0.17 | -0.865 ± 0.12
5 | AAAAAGCAAUAUUACGCCAA | -2.26 ± 0.17 | -1.33 ± 0.12
6 | UUAGAGCAAUAUUACGACUA | -1.13 ± 0.31 | -0.676 ± 0.32
7 | AAUCAGCAAUAUUACGAGCU | -0.908 ± 0.093 | -0.226 ± 0.093
8 | GUCAAGCAAUAUUACGAGUC | -3.75 ± 0.2 | -2.87 ± 0.26
9 | CGAUAGCAAUAUUACGCUUG | -2.88 ± 0.2 | -1.04 ± 0.16
10 | AAAUAGCAAUAUUACGCGAG | -1.93 ± 0.17 | -0.639 ± 0.14
11 | UCAGAGCAAUAUUACGAUGC | -3.8 ± 0.32 | -1.68 ± 0.24
12 | UAGAAGCAAUAUUACGUGCG | -0.462 ± 0.082 | -0.125 ± 0.098
13 | GAUGAGCAAUAUUACGUAUC | -3.54 ± 0.37 | -2.64 ± 0.31
14 | CAGCAGCAAUAUUACGGUCG | 0.264 ± 0.053 | 0.584 ± 0.08
15 | CAUCAGCAAUAUUACGGUCA | -1.11 ± 0.076 | -0.81 ± 0.098
16 | UACGAGCAAUAUUACGGGGG | -4.08 ± 0.29 | -3.14 ± 0.34
17 | GUAGAGCAAUAUUACGAGUA | -3.5 ± 0.28 | -1.69 ± 0.29
18 | CUGUAGCAAUAUUACGCGCG | -0.982 ± 0.12 | -0.117 ± 0.14
19 | CAAGAGCAAUAUUACGUACA | -3.1 ± 0.35 | -1.89 ± 0.26
20 | AGGUAGCAAUAUUACGGAAA | -2.92 ± 0.033 | -1.96 ± 0.039
21 | GUACAGCAAUAUUACGCUUA | -1.58 ± 0.08 | -1.03 ± 0.091
22 | UGAGAGCAAUAUUACGCAUA | -3.24 ± 0.44 | –
23 | UAAAAGCAAUAUUACGGCAC | -1.64 ± 0.14 | -1.13 ± 0.2
24 | AGGGAGCAAUAUUACGUAAU | – | -2.05 ± 0.26
25 | AAGGAGCAAUAUUACGGUAU | -3.5 ± 0.26 | -2.06 ± 0.31
26 | UCGAAGCAAUAUUACGCCCG | -1.33 ± 0.16 | -0.864 ± 0.17

Row | Sequence | self-splicing fitness (ln) (30 °C) | self-splicing fitness (ln) (37 °C)
27 | GCCCAGCAAUAUUACGUCAG | -3.98 ± 0.2 | -2.82 ± 0.23
28 | UUAAAGCAAUAUUACGCCCU | -0.437 ± 0.11 | 0.33 ± 0.14
29 | CUUGAGCAAUAUUACGUGGG | -3.3 ± 0.38 | -3.17 ± 0.27
30 | CCCAAGCAAUAUUACGGCUA | -4.01 ± 0.42 | -3.19 ± 0.32
31 | GAGGAGCAAUAUUACGUUAA | -2.94 ± 0.36 | -1.65 ± 0.21
32 | GCGAAGCAAUAUUACGAGAC | -2.67 ± 0.26 | -1.46 ± 0.25
33 | UUUAAGCAAUAUUACGUACC | -2.05 ± 0.39 | –
34 | UUAGAGCAAUAUUACGCUUU | -3.62 ± 0.37 | -2.02 ± 0.32
35 | UGAUAGCAAUAUUACGCCAC | – | -0.614 ± 0.29
36 | CCCCAGCAAUAUUACGUUCU | -4.2 ± 0.27 | -3.05 ± 0.17
37 | AGUGAGCAAUAUUACGAGGU | -3.63 ± 0.31 | –
38 | CUUCAGCAAUAUUACGCCCA | -1.53 ± 0.31 | -0.354 ± 0.26
39 | UAAAAGCAAUAUUACGAGCU | -2.07 ± 0.11 | -1.68 ± 0.14
40 | AAAAAGCAAUAUUACGUCCC | -0.842 ± 0.15 | 0.362 ± 0.23
41 | GUGUAGCAAUAUUACGUUUU | -3.32 ± 0.16 | -1.45 ± 0.12
42 | AUCGAGCAAUAUUACGACAC | -2.4 ± 0.29 | -0.469 ± 0.22
43 | CGCUAGCAAUAUUACGUGAA | -3.59 ± 0.16 | -2.34 ± 0.087
44 | GCCUAGCAAUAUUACGCUGC | – | -1.32 ± 0.21
45 | GACCAGCAAUAUUACGAGCC | -0.222 ± 0.093 | 0.0644 ± 0.14
46 | GAGUAGCAAUAUUACGUGUA | -2.97 ± 0.11 | -1.35 ± 0.1
47 | CCUCAGCAAUAUUACGGGUA | -3.23 ± 0.18 | -1.9 ± 0.14
48 | GCUAAGCAAUAUUACGUUGU | -2.7 ± 0.11 | -2.43 ± 0.13
49 | UCGAAGCAAUAUUACGUAUC | -3.96 ± 0.35 | –
50 | CCCUAGCAAUAUUACGAAAG | -3.5 ± 0.26 | –
51 | CUACAGCAAUAUUACGAUUA | -2.88 ± 0.16 | -1.5 ± 0.15
